Assay results reported in US20240156864A1 (UNIVERSITY OF NORTH CAROLINA AT CHAPEL HILL, published 2024).

B1: CAR19.28ζ (receptor)
chain: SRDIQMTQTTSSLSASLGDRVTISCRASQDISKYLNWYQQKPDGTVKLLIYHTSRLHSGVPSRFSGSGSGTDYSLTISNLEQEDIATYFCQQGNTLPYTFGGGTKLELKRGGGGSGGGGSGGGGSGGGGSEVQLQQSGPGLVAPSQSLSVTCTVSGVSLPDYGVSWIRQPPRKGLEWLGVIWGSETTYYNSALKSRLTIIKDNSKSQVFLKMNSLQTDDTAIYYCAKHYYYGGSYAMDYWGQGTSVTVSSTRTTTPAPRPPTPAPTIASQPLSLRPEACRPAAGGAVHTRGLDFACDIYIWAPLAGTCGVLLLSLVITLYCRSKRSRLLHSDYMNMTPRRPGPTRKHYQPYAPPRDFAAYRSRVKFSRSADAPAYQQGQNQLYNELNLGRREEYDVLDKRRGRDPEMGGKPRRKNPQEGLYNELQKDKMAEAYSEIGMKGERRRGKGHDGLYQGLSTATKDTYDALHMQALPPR
notes: Expressed in human T cells and pulled down from lysate with the anti-CAR19 Ab; also called CAR.28ζ; CAR19.CD28ζ
B2: TRAF2 (other)
chain: AAASVTPPGSLELLQPGFSKTLLGTKLEAKYLCSACRNVLRRPFQAQCGHRYCSFCLASILSSGPQNCAACVHEGIYEEGISILESSSAFPDNAARREVESLPAVCPSDGCTWKGTLKEYESCHEGRCPLMLTECPACKGLVRLGEKERHLEHECPERSLSCRHCRAPCCGADVKAHHEVCPKFPLTCDGCGKKKIPREKFQDHVKTCGKCRVPCRFHAIGCLETVEGEKQQEHEVQWLREHLAMLLSSVLEAKPLLGDQSHAGSELLQRCESLEKKTATFENIVCVLNREVERVAMTAEACSRQHRLDQDKIEALSSKVQQLERSIGLKDLAMADLEQKVLEMEASTYDGVFIWKISDFARKRQEAVAGRIPAIFSPAFYTSRYGYKMCLRIYLNGDGTGRGTHLSLFFVVMKGPNDALLRWPFNQKVTLMLLDQNNREHVIDAFRPDVTSSSFQRPVNDMNIASGCPLFCPVSKMEAKNSYVRDDAIFIKAIVDLTGL
notes: Endogenous protein from T cell lysate
B3: PIK3CD (enzyme)
chain: MPPGVDCPMEFWTKEENQSVVVDFLLPTGVYLNFPVSRNANLSTIKQLLWHRAQYEPLFHMLSGPEAYVFTCINQTAEQQELEDEQRRLCDVQPFLPVLRLVAREGDRVKKLINSQISLLIGKGLHEFDSLCDPEVNDFRAKMCQFCEEAAARRQQLGWEAWLQYSFPLQLEPSAQTWGPGTLRLPNRALLVNVKFEGSEESFTFQVSTKDVPLALMACALRKKATVFRQPLVEQPEDYTLQVNGRHEYLYGSYPLCQFQYICSCLHSGLTPHLTMVHSSSILAMRDEQSNPAPQVQKPRAKPPPIPAKKPSSVSLWSLEQPFRIELIQGSKVNADERMKLVVQAGLFHGNEMLCKTVSSSEVSVCSEPVWKQRLEFDINICDLPRMARLCFALYAVIEKAKKARSTKKKSKKADCPIAWANLMLFDYKDQLKTGERCLYMWPSVPDEKGELLNPTGTVRSNPNTDSAAALLICLPEVAPHPVYYPALEKILELGRHSECVHVTEEEQLQLREILERRGSGELYEHEKDLVWKLRHEVQEHFPEALARLLLVTKWNKHEDVAQMLYLLCSWPELPVLSALELLDFSFPDCHVGSFAIKSLRKLTDDELFQYLLQLVQVLKYESYLDCELTKFLLDRALANRKIGHFLFWHLRSEMHVPSVALRFGLILEAYCRGSTHHMKVLMKQGEALSKLKALNDFVKLSSQKTPKPQTKELMHLCMRQEAYLEALSHLQSPLDPSTLLAEVCVEQCTFMDSKMKPLWIMYSNEEAGSGGSVGIIFKNGDDLRQDMLTLQMIQLMDVLWKQEGLDLRMTPYGCLPTGDRTGLIEVVLRSDTIANIQLNKSNMAATAAFNKDALLNWLKSKNPGEALDRAIEEFTLSCAGYCVATYVLGIGDRHSDNIMIRESGQLFHIDFGHFLGNFKTKFGINRERVPFILTYDFVHVIQQGKTNNSEKFERFRGYCERAYTILRRHGLLFLHLFALMRAAGLPELSCSKDIQYLKDSLALGKTEEEALKHFRVKFNEALRESWKTKVNWLAHNVSKDNRQ
notes: as for B2
B4: THEMIS (other)
chain: MALSLEEFVHSLDLRTLPRVLEIQAGIYLEGSIYEMFGNECCFSTGEVIKITGLKVKKIIAEICEQIEGCESLQPFELPMNFPGLFKIVADKTPYLTMEEITRTIHIGPSRLGHPCFYHQKDIKLENLIIKQGEQIMLNSVEEIDGEIMVSCAVARNHQTHSFNLPLSQEGEFYECEDERIYTLKEIVEWKIPKNRTRTVNLTDFSNKWDSTNPFPKDFYGTLILKPVYEIQGVMKFRKDIIRILPSLDVEVKDITDSYDANWFLQLLSTEDLFEMTSKEFPIVTEVIEAPEGNHLPQSILQPGKTIVIHKKYQASRILASEIRSNFPKRHFLIPTSYKGKFKRRPREFPTAYDLEIAKSEKEPLHVVATKAFHSPHDKLSSVSVGDQFLVHQSETTEVLCEGIKKVVNVLACEKILKKSYEAALLPLYMEGGFVEVIHDKKQYPISELCKQFRLPFNVKVSVRDLSIEEDVLAATPGLQLEEDITDSYLLISDFANPTECWEIPVGRLNMTVQLVSNFSRDAEPFLVRTLVEEITEEQYYMMRRYESSASHPPPRPPKHPSVEETKLTLLTLAEERTVDLPKSPKRHHVDITKKLHPNQAGLDSKVLIGSQNDLVDEEKERSNRGATAIAETFKNEKHQK
notes: Endogenous protein from T cell lysate (Co-IP-MS); also called endogenous THEMIS; TEHMIS [sic]
B5: TRAF1 (other)
chain: MASSSGSSPRPAPDENEFPFGCPPTVCQDPKEPRALCCAGCLSENPRNGEDQICPKCRGEDLQSISPGSRLRTQEKAHPEVAEAGIGCPFAGVGCSFKGSPQSVQEHEVTSQTSHLNLLLGFMKQWKARLGCGLESGPMALEQNLSDLQLQAAVEVAGDLEVDCYRAPCSESQEELALQHFMKEKLLAELEGKLRVFENIVAVLNKEVEASHLALATSIHQSQLDRERILSLEQRVVELQQTLAQKDQALGKLEQSLRLMEEASFDGTFLWKITNVTRRCHESACGRTVSLFSPAFYTAKYGYKLCLRLYLNGDGTGKRTHLSLFIVIMRGEYDALLPWPFRNKVTFMLLDQNNREHAIDAFRPDLSSASFQRPQSETNVASGCPLFFPLSKLQSPKHAYVKDDTMFLKCIVETST
notes: as for B2
B6: CD8α (receptor)
chain: not shown
notes: Endogenous protein from T cell lysate; The CARs themselves carry a CD8α stalk; the text says that unique peptides outside the stalk were detected; also called CD8A; CD8 co-receptor

Molecular target: B2
Assay: co-IP with anti-CAR19 Ab, LC-MS/MS; 'Values not identified are denoted by -'
Experimental: (§1) For Immunoprecipitation (IP), assay, proteins from T cells were extracted in RIPA lysis buffer (Thermo Scientific) supplemented with 1×protease/phosphatase Inhibitors (Thermo Scientific). Equal amount of total proteins was used for IP. Rabbit/mouse IgG (Thermo Scientific) with protein G magnetic beads (Bio-Rad) was used to pre-clear the lysate and anti-CAR19, anti-HA or anti-FLAG Abs were incubated with lysate for 16 hours, and protein G beads were then used for the pull-down. IP products were dissolved in 2× SDS Laemmli buffer for Western blot analysis. […] 2× SDS Laemmli buffer without β-mercaptoethanol was used to dissolve the IP product, and β-mercaptoethanol was supplemented before western blot.
(§2) For mass spectrometry (MS) assays, immunoprecipitated samples (3 biological replicates) were subjected to SDS-PAGE and stained with Coomassie blue dye. Lanes for each sample were excised and the proteins were reduced, alkylated, and in-gel digested with trypsin overnight at 37° C. Peptides were extracted, desalted with C18 spin columns (Pierce) and dried via vacuum centrifugation. Peptide samples were stored at −80° C. until further analysis. The peptide samples were analyzed by liquid chromatography coupled to tandem mass spectrometry (LC-MS/MS) in 3 separated experiments using a Thermo Easy nLC 1000 coupled to a QExactive HF or a Waters nanoAcquity coupled to a Thermo LTQ-Orbitrap Velos. […]

binding result	Binder
no binding	B1

Molecular target: B5
Assay: as above
Experimental: as §1, §2

binding result	Binder
no binding	B1

Molecular target: T1, CAR19.BBζ (human, UniProt P01732 138-206; Q07011 214-255; P20963 52-164)
T1 construct: Expressed in human T cells (or Jurkat cells) and pulled down from lysate; also called CAR.BBζ; CAR19.BBC
T1 sequence (P20963 other isoform, or with tags, fused parts or gaps): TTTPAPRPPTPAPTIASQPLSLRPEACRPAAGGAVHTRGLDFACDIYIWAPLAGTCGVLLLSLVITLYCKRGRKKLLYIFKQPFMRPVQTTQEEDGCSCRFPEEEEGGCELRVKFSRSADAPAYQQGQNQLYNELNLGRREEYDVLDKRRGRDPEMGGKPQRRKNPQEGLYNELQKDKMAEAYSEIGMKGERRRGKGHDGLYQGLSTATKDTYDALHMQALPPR
Assay: co-IP with anti-CAR19 Ab from CAR-T cell lysate, LC-MS/MS
Experimental: as §1
For mass spectrometry (MS) assays, immunoprecipitated samples (3 biological replicates) were subjected to SDS-PAGE and stained with Coomassie blue dye. Lanes for each sample were excised and the proteins were reduced, alkylated, and in-gel digested with trypsin overnight at 37° C. Peptides were extracted, desalted with C18 spin columns (Pierce) and dried via vacuum centrifugation. Peptide samples were stored at −80° C. until further analysis. The peptide samples were analyzed by liquid chromatography coupled to tandem mass spectrometry (LC-MS/MS) in 3 separated experiments using a Thermo Easy nLC 1000 coupled to a QExactive HF or a Waters nanoAcquity coupled to a Thermo LTQ-Orbitrap Velos. Samples were injected onto a PepMap C18 column (75 μm id×25 cm, 2 μm particle size) (Thermo Scientific) and separated over a 90 or 120 min gradient where mobile phase A was 0.1% formic acid in water and mobile phase B consisted of 0.1% formic acid in ACN. The LTQ-Orbitrap Velos was operated in data-dependent mode where the 10 most abundant precursors were selected for CID fragmentation (35% CE). The QExactive HF was operated in data-dependent mode where the 15 most intense precursors were selected for subsequent HCD fragmentation (27 NCE).

Area	Coverage [%]	Peptides (number identified)	Binder
5.52e+07	14	6	B2
5.1e+06	2	2	B3
3.78e+07	4	2	B4
2.31e+08	15	4	B5
7.34e+08	32	6	B6

Molecular target: T2, CD4 co-receptor (human, UniProt P01730 26-458)
T2 construct: Endogenous protein from T cell lysate
Assay: co-IP with anti-CAR19 Ab, LC-MS/MS

binding result	Binder
no binding	B1
